{
  "source": "patent US20210347833A1",
  "about": "(WISYS TECHNOLOGY FOUNDATION, published 2021)",
  "target": "the molecule itself",
  "test": "size-exclusion chromatography, titration of apoSFP with biliverdin; self-association of subunits (apo protein is monomeric, no dimer fraction seen)",
  "data": [
    {"protein": "Recombinant wild-type Sandercyanin fluorescent protein (SFP) lacking the signal peptide (other, the apo protein is a monomer in solution; also called wtSFP; wild-type SFP) MFIKPGRCPKPAVQEDFDAARYLGVWYDIQRLPNKFQKGECATATYSLSPGVGFSVFNRERLANGTIKSVIGSAIAEDPCEPAKLQFFHENAAPVPYWVLSTDYDNYALVYSCINLGASHAAYASIVSRQPTLPEETIKKLQGTMSSFGVGVDTLLTTNQDAAYCSAMNQ", "values": [
      {"measurement": "binding result", "value": "binds"}
    ]}
  ]
}
